Test [1] addresses sialylated IgG1 V11 (G237D, P238D, H268D, P271G, A330R) Fc (human). The test can be described thus: SPR.
The target in test [2] is sialylated IgG1 GA (G236A) Fc (human). Description: SPR. In general terms: Surface plasmon resonance follows binding to a sensor surface in real time, without labels.

This passage reports fold weaker affinity against WT sFc and fold change in affinity against WT sFc results from doi:10.1101/2024.12.16.628704.

“FcγRIA (CD64) (from UniProt P12314 16-374) (receptor)” showed a fold weaker affinity against WT sFc in test [1] of 193 fold.

Consider “FcγRIIA (CD32a), variant not named in the sentence (from UniProt P12318 34-317) (receptor)”, for which, in test [2], the fold change in affinity against WT sFc worked out at 10 fold.

For “FcγRIIB (CD32b), as used in SPR with Fc proteins (from UniProt P31994 43-310) (receptor)”, the fold change in affinity against WT sFc in test [1] worked out at 37 fold.
